{"source": "paper PMC6888877", "about": "“Deconstructing and repurposing the light-regulated interplay between Arabidopsis phytochromes and interacting factors” (Communications Biology, 2019)", "key": {"[1]": {"biological_target": "T1, P6.A-EYFP (Arabidopsis thaliana)", "T1 chain": "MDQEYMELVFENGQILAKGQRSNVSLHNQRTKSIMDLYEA", "assay": "cell-based or functional assay"}, "[2]": {"biological_target": "T2, AtPIF3 (1-100)-EYFP, P3.100 (Arabidopsis thaliana, UniProt O80536 1-100)", "T2 sequence (looked up)": "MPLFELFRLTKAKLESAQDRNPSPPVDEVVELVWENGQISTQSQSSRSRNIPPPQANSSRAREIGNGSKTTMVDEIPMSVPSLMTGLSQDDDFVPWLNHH", "assay": "cell-based or functional assay"}, "[3]": {"biological_target": "T3, AtPIF6 (1-100)-EYFP, P6.100 (Arabidopsis thaliana, UniProt Q8L5W7 1-100)", "T3 sequence (looked up)": "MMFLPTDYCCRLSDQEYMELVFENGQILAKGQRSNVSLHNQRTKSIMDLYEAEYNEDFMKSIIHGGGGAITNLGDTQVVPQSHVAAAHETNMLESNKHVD", "assay": "cell-based or functional assay"}, "[4]": {"biological_target": "T4, P6.fus-EYFP (Arabidopsis thaliana)", "T4 chain": "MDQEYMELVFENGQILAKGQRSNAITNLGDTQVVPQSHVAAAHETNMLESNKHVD", "assay": "SEC; 50 µM AtPhyB PCM + 10 µM AtPIF-EYFP (5:1), illuminated with red light (650 nm, 2 min; results say 640 nm), Pfr state; Superdex 200 Increase 10/300 GL; 67 mM sodium phosphate pH 8.0, 200 mM NaCl", "settings": "both partners purified"}, "[5]": {"biological_target": "T5, P3.As-EYFP (Arabidopsis thaliana)", "T5 chain": "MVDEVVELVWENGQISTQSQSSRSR", "assay": "SEC; 50 µM AtPhyB PCM + 10 µM AtPIF-EYFP (5:1), illuminated with red light (650 nm, 2 min; results say 640 nm), Pfr state; Superdex 200 Increase 10/300 GL; 67 mM sodium phosphate pH 8.0, 200 mM NaCl", "settings": "both partners purified"}, "[6]": {"biological_target": "T6, P3.A-EYFP (Arabidopsis thaliana)", "T6 chain": "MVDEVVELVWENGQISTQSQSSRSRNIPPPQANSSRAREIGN", "assay": "SEC; 50 µM AtPhyB PCM + 10 µM AtPIF-EYFP (5:1), illuminated with red light (650 nm, 2 min; results say 640 nm), Pfr state; Superdex 200 Increase 10/300 GL; 67 mM sodium phosphate pH 8.0, 200 mM NaCl", "settings": "both partners purified"}}, "data": [{"binder": "Arabidopsis thaliana phytochrome B photosensory core module (AtPhyB PCM) (domain or fragment, UniProt P14713 1-651, looked up, covalently incorporated bilin chromophore (PCB; co-expressed Synechocystis sp. heme oxygenase 1 and pcyA), A. thaliana phytochrome B, photosensory core module (PAS-GAF-PHY with N-terminal extension), residues 1-651; Pr state (far-red light or dark) and Pfr state (red light; Pfr/Pr about 0.56/0.44) are told apart by the assays; In the cell experiments other constructs were used (PCM-VP16; PCM 1-650 with CAAX); source: E. coli BL21(DE3), plasmid pDG282, purified (Ni-NTA IMAC, anion exchange)) MVSGVGGSGGGRGGGRGGEEEPSSSHTPNNRRGGEQAQSSGTKSLRPRSNTESMSKAIQQYTVDARLHAVFEQSGESGKSFDYSQSLKTTTYGSSVPEQQITAYLSRIQRGGYIQPFGCMIAVDESSFRIIGYSENAREMLGIMPQSVPTLEKPEILAMGTDVRSLFTSSSSILLERAFVAREITLLNPVWIHSKNTGKPFYAILHRIDVGVVIDLEPARTEDPALSIAGAVQSQKLAVRAISQLQALPGGDIKLLCDTVVESVRDLTGYDRVMVYKFHEDEHGEVVAESKRDDLEPYIGLHYPATDIPQASRFLFKQNRVRMIVDCNATPVLVVQDDRLTQSMCLVGSTLRAPHGCHSQYMANMGSIASLAMAVIINGNEDDGSNVASGRSSMRLWGLVVCHHTSSRCIPFPLRYACEFLMQAFGLQLNMELQLALQMSEKRVLRTQTLLCDMLLRDSPAGIVTQSPSIMDLVKCDGAAFLYHGKYYPLGVAPSEVQIKDVVEWLLANHADSTGLSTDSLGDAGYPGAAALGDAVCGMAVAYITKRDFLFWFRSHTAKEIKWGGAKHHPEDKDDGQRMHPRSSFQAFLEVVKSRSQPWETAEMDAIHSLQLILRDSFKESEAAMNSKVVDGVVQPCRDMAGEQGIDELGA", "values": [{"measurement": "normalized SEAP reporter expression in CHO-K1 cells, split transcription factor (AtPhyB PCM-VP16 + E-protein-AtPIF variant), red light against darkness", "setting": "[1]", "value": 43, "unit": "fold"}, {"measurement": "normalized SEAP reporter expression in CHO-K1 cells, split transcription factor (AtPhyB PCM-VP16 + E-protein-AtPIF variant), red light against darkness", "setting": "[2]", "value": 10, "unit": "fold"}, {"measurement": "normalized SEAP reporter expression in CHO-K1 cells, split transcription factor (AtPhyB PCM-VP16 + E-protein-AtPIF variant), red light against darkness", "setting": "[3]", "value": 4, "unit": "fold"}, {"measurement": "stoichiometry N", "setting": "[4]", "value": 1}, {"measurement": "stoichiometry N", "setting": "[5]", "value": 1}, {"measurement": "stoichiometry N", "setting": "[6]", "value": 1}]}]}
